Experiments:
[1] = molecular target: HRP-labeled human S100A7 (UniProt P31151); experiment: ELISA; details: His-tagged TdfJ on NTA-coated 96-well plate; absorbance at 450 nm; parent: est. 100; read off a plot
[2] = molecular target: His-tagged TdfJ K261P/R262P (purified) (Neisseria gonorrhoeae); experiment: SPR; His-tagged TdfJ (89 μg/mL) immobilised on Ni-NTA sensor chip, free NTA blocked with His-tagged streptavidin; S100A7 injected at 1, 10, 50, 100, 500 nM, 20 μL/min; PBS pH 8.0; OpenSPR XT; steady-state, single-site fit (EC50 analysis setting)
[3] = molecular target: His-tagged wild-type TdfJ (purified) (Neisseria gonorrhoeae); experiment: as above
[4] = molecular target: transferrin (Homo sapiens) (UniProt P02787); details: cited from earlier work
UniProt P02787, sequence (P02787 20-698): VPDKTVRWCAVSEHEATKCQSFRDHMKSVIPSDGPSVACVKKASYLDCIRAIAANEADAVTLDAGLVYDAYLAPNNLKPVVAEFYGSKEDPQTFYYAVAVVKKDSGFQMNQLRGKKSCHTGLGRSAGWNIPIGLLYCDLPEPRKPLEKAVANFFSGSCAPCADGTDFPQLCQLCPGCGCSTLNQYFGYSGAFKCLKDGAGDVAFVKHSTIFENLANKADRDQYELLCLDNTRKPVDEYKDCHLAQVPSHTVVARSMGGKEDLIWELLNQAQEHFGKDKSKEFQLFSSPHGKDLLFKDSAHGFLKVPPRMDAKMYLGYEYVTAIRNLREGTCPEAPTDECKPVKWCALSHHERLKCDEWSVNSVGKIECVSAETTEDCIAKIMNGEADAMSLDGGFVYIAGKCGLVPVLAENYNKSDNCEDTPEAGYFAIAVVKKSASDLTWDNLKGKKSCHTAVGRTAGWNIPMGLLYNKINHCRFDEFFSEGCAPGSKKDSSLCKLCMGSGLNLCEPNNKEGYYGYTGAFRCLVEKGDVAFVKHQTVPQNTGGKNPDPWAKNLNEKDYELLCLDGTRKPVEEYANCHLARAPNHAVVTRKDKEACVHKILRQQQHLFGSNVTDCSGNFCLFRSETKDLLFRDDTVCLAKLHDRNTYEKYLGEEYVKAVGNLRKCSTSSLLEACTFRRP

Substance: His-tagged wild-type TdfJ (purified) K256E
- percent of parent (% of Wildtype) [1]: 87

Substance: His-tagged wild-type TdfJ (purified) K261P; R262P
- percent of parent (% of Wildtype) [1]: 3

Substance: His-tagged wild-type TdfJ (purified) L266P
- percent of parent (% of Wildtype) [1]: 74

Substance: His-tagged wild-type TdfJ (purified) Q265P
- percent of parent (% of Wildtype) [1]: 80

Substance: His-tagged wild-type TdfJ (purified) Q265P; L266P
- percent of parent (% of Wildtype) [1]: 20

Substance: His-tagged wild-type TdfJ (purified) R262P
- percent of parent (% of Wildtype) [1]: 79

Substance: Human S100A7 (from UniProt P31151 1-101) (natural protein)
- SPR response at equilibrium at 500 nM S100A7 [2]: 325 RU
- Kd [3]: 41 nM
- SPR response at 1 nM S100A7 [3]: 220 RU
- SPR response at 500 nM S100A7 [3]: 900 RU

Substance: TbpA (from UniProt Q01996)
- Kd [4]: 10 nM

Reference: PMC9426574
